Reference: patent US20070020227A1

T1: zcyto20 (human IL-28A) (human) (UniProt Q8IZJ0)
T1 sequence: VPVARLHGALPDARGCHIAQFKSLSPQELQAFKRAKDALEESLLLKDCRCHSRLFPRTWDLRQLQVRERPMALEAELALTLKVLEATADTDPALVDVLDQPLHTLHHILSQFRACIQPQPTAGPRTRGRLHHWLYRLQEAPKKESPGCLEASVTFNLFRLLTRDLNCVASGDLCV

T2: zcyto24 (mouse IL-28, SEQ ID NO: 8) (mouse) (UniProt Q4VK74)
T2 sequence: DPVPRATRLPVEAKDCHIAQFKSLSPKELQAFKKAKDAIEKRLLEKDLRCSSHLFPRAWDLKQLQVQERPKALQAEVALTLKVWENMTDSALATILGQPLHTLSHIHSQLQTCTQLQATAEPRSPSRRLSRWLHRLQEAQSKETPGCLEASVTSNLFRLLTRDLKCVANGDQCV


Legend:
Test in all cases: cell-based or functional assay
[1] = molecular target: human IL-28 receptor on 293 HEK cells (transfected IL-28 receptor alpha subunit with endogenous CRF2-4) (human)
Sequence of human IL-28 receptor on 293 HEK cells (transfected IL-28 receptor alpha subunit with endogenous CRF2-4) (human) (Q8IU57 whole entry, chain 1 of 2): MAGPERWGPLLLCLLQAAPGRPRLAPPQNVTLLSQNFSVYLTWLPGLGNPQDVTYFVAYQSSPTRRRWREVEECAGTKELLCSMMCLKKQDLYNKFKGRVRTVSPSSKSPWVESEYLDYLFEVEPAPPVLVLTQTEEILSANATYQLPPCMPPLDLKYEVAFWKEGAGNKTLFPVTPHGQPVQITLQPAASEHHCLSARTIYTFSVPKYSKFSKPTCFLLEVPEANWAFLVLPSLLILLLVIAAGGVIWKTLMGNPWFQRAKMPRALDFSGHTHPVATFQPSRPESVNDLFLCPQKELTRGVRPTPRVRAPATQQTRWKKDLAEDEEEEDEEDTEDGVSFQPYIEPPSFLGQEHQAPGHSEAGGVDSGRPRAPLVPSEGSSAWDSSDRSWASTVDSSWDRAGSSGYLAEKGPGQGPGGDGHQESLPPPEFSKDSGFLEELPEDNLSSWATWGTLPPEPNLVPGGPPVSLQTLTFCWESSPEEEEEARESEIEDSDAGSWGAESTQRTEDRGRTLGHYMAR
Sequence of human IL-28 receptor on 293 HEK cells (transfected IL-28 receptor alpha subunit with endogenous CRF2-4) (human) (Q08334 whole entry, chain 2 of 2, further chain): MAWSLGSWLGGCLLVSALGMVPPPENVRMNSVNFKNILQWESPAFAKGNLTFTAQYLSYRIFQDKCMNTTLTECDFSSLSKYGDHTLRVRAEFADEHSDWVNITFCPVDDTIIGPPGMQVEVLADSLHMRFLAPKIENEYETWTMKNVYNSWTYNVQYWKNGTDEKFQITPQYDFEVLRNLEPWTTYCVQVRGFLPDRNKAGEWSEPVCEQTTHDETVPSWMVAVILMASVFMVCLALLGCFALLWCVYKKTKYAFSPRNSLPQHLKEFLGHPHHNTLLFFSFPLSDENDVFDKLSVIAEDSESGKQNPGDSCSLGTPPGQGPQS

[2] = molecular target: T1, zcyto20 (human IL-28A) (human)
[3] = molecular target: zcyto21 (SEQ ID NO:15) (human) (UniProt Q8IU54)
Sequence of UniProt Q8IU54 (Q8IU54 other isoform, or with tags, fused parts or gaps): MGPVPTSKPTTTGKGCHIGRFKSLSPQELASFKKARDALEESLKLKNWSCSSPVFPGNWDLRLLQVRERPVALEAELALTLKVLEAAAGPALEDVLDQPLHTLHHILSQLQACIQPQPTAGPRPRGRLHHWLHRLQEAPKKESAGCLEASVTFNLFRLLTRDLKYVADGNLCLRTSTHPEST

[4] = molecular target: T2, zcyto24 (mouse IL-28, SEQ ID NO: 8) (mouse)

Row | Molecule | ISRE Signaling of Transfected 293 Cells (Fold Induction), ISRE-Luc./IL-28R, ligand 125 ng/ml (fold induction) [1] | Percent Inhibition of Ligand-induced ISRE Signaling by Soluble Receptors (10 ng/ml ligand, 10 micrograms/ml soluble receptor) [2] [%] | Percent Inhibition of Ligand-induced ISRE Signaling by Soluble Receptors (10 ng/ml ligand, 10 micrograms/ml soluble receptor) [3] [%] | Percent Inhibition of Ligand-induced ISRE Signaling by Soluble Receptors (10 ng/ml ligand, 10 micrograms/ml soluble receptor) [4] [%] | ISRE Signaling of Transfected 293 Cells (Fold Induction), ISRE-Luc./IL-28R, ligand 100 ng/ml (fold induction) [1]
1 | zcyto10 (ligand) | 1 |  |  |  | 
2 | human CRF2-4-Fc homodimer soluble receptor (Fc fusion) |  | 80 | 79 | 82 | 
3 | murine zcytor19-Ig homodimer soluble receptor (Fc fusion, part only; not given: Ig portion, UniProt Q8CGK5 21-227, looked up, part only) chain, part: RPRLAPPRNVTLFSQNFTVYLTWLPGLGSPPNVTYFVTYQSYIKTGWRPVEHCAGIKALVCPLMCLKKLNLYSKFKGRVQAASAHGRSPRVESRYLEYLFDVELAPPTLVLTQMEKILRVNATYQLPPCMPSLELKYQVEFWKEGLGSKTLFPDTPYGQPVQIPLQQGASRRHCLSARTVYTLIDIKYSQFSEPSCIFLEAPGDKRA |  | 91 | 103 | 89 | 

More lines, now with the values ahead:

Row | ISRE Signaling of Transfected 293 Cells (Fold Induction), ISRE-Luc./IL-28R, ligand 125 ng/ml (fold induction) [1] | Percent Inhibition of Ligand-induced ISRE Signaling by Soluble Receptors (10 ng/ml ligand, 10 micrograms/ml soluble receptor) [2] [%] | Percent Inhibition of Ligand-induced ISRE Signaling by Soluble Receptors (10 ng/ml ligand, 10 micrograms/ml soluble receptor) [3] [%] | Percent Inhibition of Ligand-induced ISRE Signaling by Soluble Receptors (10 ng/ml ligand, 10 micrograms/ml soluble receptor) [4] [%] | ISRE Signaling of Transfected 293 Cells (Fold Induction), ISRE-Luc./IL-28R, ligand 100 ng/ml (fold induction) [1] | Molecule
4 |  | 16 | 16 | 47 |  | human zcytor19-Fc/human CRF2-4-Fc heterodimer soluble receptor (Fc fusion)
5 |  |  |  |  | 0.5 | huIL10 (from UniProt P22301 19-178) (ligand)
6 |  | 92 | 45 | 90 |  | human zcytor19-Fc homodimer soluble receptor (Fc fusion, not shown: a dimerising Fc or GST) RPRLAPPQNVTLLSQNFSVYLTWLPGLGNPQDVTYFVAYQSSPTRRRWREVEECAGTKELLCSMMCLKKQDLYNKFKGRVRTVSPSSKSPWVESEYLDYLFEVEPAPPVLVLTQTEEILSANATYQLPPCMPPLDLKYEVAFWKEGAGNKTLFPVTPHGQPVQITLQPAASEHHCLSARTIYTFSVPKYSKFSKPTCFLLEVPEANWA
7 | 104 |  |  |  |  | IL-28B (SEQ ID NO: 6) (ligand) VPVARLRGALPDARGCHIAQFKSLSPQELQAFKRAKDALEESLLLKDCKCRSRLFPRTWDLRQLQVRERPVALEAELALTLKVLEATADTDPALGDVLDQPLHTLHHILSQLRACIQPQPTAGPRTRGRLHHWLHRLQEAPKKESPGCLEASVTFNLFRLLTRDLNCVASGDLCV
